From US11833164B2, “Methods of treating Fabry disease in patients having a mutation in the GLA gene” (Amicus Therapeutics, Inc., priority 2019, dated 2023)
Where a chain is given by its changes, count along the chain named. Numbers in names are those of the source.

B1: D136A (protein)
chain: MQLRNPELHLGCALALRFLALVSWDIPGARALDNGLARTPTMGWLHWERFMCNLDCQEEPDSCISEKLFMEMAELMVSEGWKDAGYEYLCIDDCWMAPQRDSEGRLQADPQRFPHGIRQLANYVHSKGLKLGIYAAVGNKTCAGFPGSFGYYDIDAQTFADWGVDLLKFDGCYCDSLENLADGYKHMSLALNRTGRSIVYSCEWPLYMWPFQKPNYTEIRQYCNHWRNFADIDDSWKSIKSILDWTSFNQERIVDVAGPGGWNDPDMLVIGNFGLSWNQQVTQMALWAIMAAPLFMSNDLRHISPQAKALLQDKDVIAINQDPLGKQGYQLRQGDNFEVWERPLSGLAWAVAMINRQEIGGPRSYTIAVASLGKGVACNPACFITQLLPVKRKLGFYEWTSRLRSHINPTGTVLLQLENTMQMSLKDLL
B2: V137D (protein)
chain: B1 chain with A136D, V137D
B3: V137A (protein)
chain: B1 chain with A136D, V137A
B4: D136N (protein)
chain: B1 chain with A136N
B5: D136V (protein)
chain: B1 chain with A136V
B6: V137I (protein)
chain: B1 chain with A136D, V137I
B7: V137G (protein)
chain: B1 chain with A136D, V137G

Test system: mutant form of α-Gal A expressed in HEK-293 cells
Experiment: HEK assay (GLP HEK / Migalastat Amenability Assay): α-Gal A activity in lysates of transiently transfected HEK-293 cells incubated with or without 10 μM migalastat
Format: cell-based, human
Settings: for Absolute increase (% WT): 10 μM migalastat versus baseline; for Relative increase: 10 μM migalastat α-Gal A activity relative to baseline; for 10 μM migalastat α-Gal A activity (% WT): 5 days; for 10 μM migalastat α-Gal A activity (% WT) / Baseline α-Gal A activity (% WT): percentage of baseline wild-type α-Gal A activity; for 10 μM migalastat α-Gal A activity (% WT) / Baseline α-Gal A activity (% WT) / Baseline α-Gal A activity / 10 μM migalastat α-Gal A activity: mean ± SEM; for Baseline α-Gal A activity (% WT): absence of migalastat; for Baseline α-Gal A activity / 10 μM migalastat α-Gal A activity: lysates of HEK-293 cells transfected with the mutant form; for Baseline α-Gal A activity: incubated 5 days in the absence of migalastat; for 10 μM migalastat α-Gal A activity: incubated 5 days with 10 μM migalastat
Procedure, shortened: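 Activity reported as 4-MU released (nmol/mg/hr), mean±SEM, from lysates of transiently transfected HEK-293 cells expressing mutant α-Gal A, cultured with or without 10 μM migalastat.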

Molecule	Absolute increase (% WT)	Relative increase	10 μM migalastat α-Gal A activity (% WT)	Baseline α-Gal A activity (% WT)	Baseline α-Gal A activity [nmol/mg/h]	10 μM migalastat α-Gal A activity [nmol/mg/h]
B1	9.4	1.5	29.8 ± 1	20.4 ± 1.1	8054 ± 482	12166 ± 927
B2	11.6	9.2	13 ± 1.6	1.4 ± 0.2	516 ± 80	4757 ± 618
B3	45.4	1.8	106.6 ± 5.9	61.1 ± 4.6	22393 ± 1429	40016 ± 2785
B4	11.2	1.9	24.2 ± 0.9	13 ± 0.8	5079 ± 248	9827 ± 630
B5	74.2	2.8	116.4 ± 5.5	42.2 ± 1.7	17164 ± 1203	47647 ± 3779
B6	24.7	1.8	57.4 ± 2.5	32.8 ± 1.6	12148 ± 597	21313 ± 987
B7	52.4	2.2	98.2 ± 5	45.9 ± 4.2	16515 ± 1170	36258 ± 1701
